This test addresses Recombinant Aβ1-42 (rAβ1-42 peptides) in the Thioflavin T fibril formation assay (UniProt P05067). Put plainly: cell-based or functional assay.

Recombinant Aβ1-42 (rAβ1-42 peptides) in the Thioflavin T fibril formation assay, sequence (P05067 672-713 limits assumed): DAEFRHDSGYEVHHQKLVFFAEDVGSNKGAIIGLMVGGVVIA

As for “control anti-rhodopsin 1D4 antibody (Abcam)”, the T50 (time in minutes for 50% inhibition of fibril formation) is 25.9 min.

Values taken from patent publication US20160251419A1.
